{"source": "IntAct's records for PubMed 24217340", "parents": {"B1": {"name": "Suppressor of fused homolog (Homo sapiens), Q9UMX1 (parent)", "chain": "MAELRPSGAPGPTAPPAPGPTAPPAFASLFPPGLHAIYGECRRLYPDQPNPLQVTAIVKYWLGGPDPLDYVSMYRNVGSPSANIPEHWHYISFGLSDLYGDNRVHEFTGTDGPSGFGFELTFRLKRETGESAPPTWPAELMQGLARYVFQSENTFCSGDHVSWHSPLDNSESRIQHMLLTEDPQMQPVQTPFGVVTFLQIVGVCTEELHSAQQWNGQGILELLRTVPIAGGPWLITDMRRGETIFEIDPHLQERVDKGIETDGSNLSGVSAKCAWDDLSRPPEDDEDSRSICIGTQPRRLSGKDTEQIRETLRRGLEINSKPVLPPINPQRQNGLAHDRAPSRKDSLESDSSTAIIPHELIRTRQLESVHLKFNQESGALIPLCLRGRLLHGRHFTYKSITGDMAITFVSTGVEGAFATEEHPYAAHGPWLQILLTEEFVEKMLEDLEDLTSPEEFKLPKEYSWPEKKLKVSILPDVVFDSPLH"}, "B2": {"name": "Zinc finger protein GLI1 (Homo sapiens), P08151 (parent)", "chain": "MFNSMTPPPISSYGEPCCLRPLPSQGAPSVGTEGLSGPPFCHQANLMSGPHSYGPARETNSCTEGPLFSSPRSAVKLTKKRALSISPLSDASLDLQTVIRTSPSSLVAFINSRCTSPGGSYGHLSIGTMSPSLGFPAQMNHQKGPSPSFGVQPCGPHDSARGGMIPHPQSRGPFPTCQLKSELDMLVGKCREEPLEGDMSSPNSTGIQDPLLGMLDGREDLEREEKREPESVYETDCRWDGCSQEFDSQEQLVHHINSEHIHGERKEFVCHWGGCSRELRPFKAQYMLVVHMRRHTGEKPHKCTFEGCRKSYSRLENLKTHLRSHTGEKPYMCEHEGCSKAFSNASDRAKHQNRTHSNEKPYVCKLPGCTKRYTDPSSLRKHVKTVHGPDAHVTKRHRGDGPLPRAPSISTVEPKREREGGPIREESRLTVPEGAMKPQPSPGAQSSCSSDHSPAGSAANTDSGVEMTGNAGGSTEDLSSLDEGPCIAGTGLSTLRRLENLRLDQLHQLRPIGTRGLKLPSLSHTGTTVSRRVGPPVSLERRSSSSSSISSAYTVSRRSSLASPFPPGSPPENGASSLPGLMPAQHYLLRARYASARGGGTSPTAASSLDRIGGLPMPPWRSRAEYPGYNPNAGVTRRASDPAQAADRPAPARVQRFKSLGCVHTPPTVAGGGQNFDPYLPTSVYSPQPPSITENAAMDARGLQEEPEVGTSMVGSGLNPYMDFPPTDTLGYGGPEGAAAEPYGARGPGSLPLGPGPPTNYGPNPCPQQASYPDPTQETWGEFPSHSGLYPGPKALGGTYSQCPRLEHYGQVQVKPEQGCPVGSDSTGLAPCLNAHPSEGPPHPQPLFSHYPQPSPPQYLQSGPYTQPPPDYLPSEPRPCLDFDSPTHSTGQLKAQLVCNYVQSQQELLWEGGGREDAPAQEPSYQSPKFLGGSQVSPSRAKAPVNTYGPGFGPNLPNHKSGSYPTPSPCHENFVVGANRASHRAAAPPRLLPPLPTCYGPLKVGGTNPSCGHPEVGRLGGGPALYPPPEGQVCNPLDSLDLDNTQLDFVAILDEPQGLSPPPSHDQRGSSGHTPPPSGPPNMAVGNMSVLLRSLPGETEFLNSSA", "partner": "B1 chain"}, "B3": {"name": "Zinc finger protein GLI2 (Mus musculus), Q0VGT2 (parent)", "chain": "METSAPAPALEKKEAKSGLLEDSSFPDPGKKACPLAVAAAVAAHGVPQQLLPAFHAPLPIDMRHQEGRYHYDPHSVHSVHGPPTLSGSPVISDISLIRLSPHPAGPGESPFSAHHPYVNPHMEHYLRSVHSSPTLSMISAARGLSPADVAHEHLKERGLFSLAAPGTNPSDYYHQMTLMASHPTPYGDLLMQSGGAASAPHLHDYLNPVDASRFSSPRVTPRLSRKRALSISPLSDASLDLQRMIRTSPNSLVAYINNSRSSSAASGSYGHLSAGALSPAFTFPHPINPVAYQQILSQQRGLGSAFGHTPPLIQPSPTFLAQQPMTLTSISTMPTQLSSSSSNCLNDANQNKQNSESAVSSTVNPITIHKRSKVKTEAEGLRPASPLGLTQEQLADLKEDLDRDDCKQEAEVVIYETNCHWADCTKEYDTQEQLVHHINNEHIHGEKKEFVCRWQACTREQKPFKAQYMLVVHMRRHTGEKPHKCTFEGCSKAYSRLENLKTHLRSHTGEKPYVCEHEGCNKAFSNASDRAKHQNRTHSNEKPYICKIPGCTKRYTDPSSLRKHVKTVHGPDAHVTKKQRNDVHVRAPLLKENGDNEASAEPGGRGPEESVEASSTSHTVEDCLHIKAIKTESSGLCQSSPGAQSSCSSEPSPLGSAPNNDSGMEMPGTGPGSLGDLTALADTCPGADTSALAAPSTGGLQLRKHMSTVHRFEQLKREKLKSLKDSCSWAGPAPHTRNTKLPPLPVNGSVLENFNNTGGGGPAGLLPSQRLPELTEVTMLSQLQERRDSSTSTMSSAYTVSRRSSGISPYFSSRRSSEASPLGGLRPHNASSADSYDPISTDASRRSSEASQCSGGGPGLLNLTPAQQYNLRAKYAAATGGPPPTPLPGLDRVSLRTRLALLDAPERALPGACPHPLGPRRGSDGPTYSHGHGHGYAGAAPAFPHEGPNSSTRRASDPVRRPDPLILPRVQRFHSTHNMNPGSLPPCADRRGLHVQSHPSVDSNLTRNAYSPRPPSINENVVMEAVAAGVDGPGLECDLGLVEDELVLPDDVVQYIKAHTGGTLDDGIRQGYPTEGTGFPENSKLPSPGLQGHRRLAAADSNMGPSAPGLGGCQLSYSPSSNLNKSNMPVQWNEVSSGTVDALPTQVKPPPFPHSNLAVVQQKPAFGQYPGYNPQSVQSSSGGLDSTQPHLQLRGAPSASRGSYTQQPRQPAAGSQCLGMSAAMSPQASYSQAHPQLSPNIVSGSLNQFSPSCSNMAAKPSHLGLPQQMEVVPNATIMNGHQREHGVPNSSLAAVSQPHPVLSYPQQDSYQQGSNLLSSHQPGFMESQQNAGFGLMQPRPPLEPNTASRHRGVRSGQQQLYARTTGQAMVTSANQETAEAMPKGPAGTMVSLAPQPSQDTGRAQDQNTLYYYGQIHMYEQNGGCPAVQPQPPQPQACSDSIQPEPLPSPGVNQVSSTVDSQLLEPPQIDFDAIMDDGDHSSLFSGALSPTLLHNLSQNSSRLTTPRNSLTLPSIPAGISNMAVGDMSSMLTSLAEESKFLNMMT", "partner": "B1 chain"}}}
{"variants_of": "B1", "conditions": "with gli1_human GLI1, P08151"}
{"variant": "D159R", "effect of a mutation on the interaction": "disrupting interaction"}
{"variant": "MAELRPSGAPGPTAPPAPGPTAPPAFASLFPPGLHAIYGECRRLYPDQPNPLQVTAIVKYWLGGPDPLDYVSMYRNVGSPSANIPEHWHYISFGLSDLYGDNRVHEFTGTDGPSGFGFELTFRLKRETGESAPPTWPAELMQGLARYVFQSENTFCSGAHVSWHSPLDNSESRIQHMLLTEDPQMQPVQTPFGVVTFLQIVGVCTEELHSAQQWNGQGILELLRTVPIAGGPWLITDMRRGETIFEIDPHLQERVDKGIETDGSNLSGVSAKCAWDDLSRPPEDDEDSRSICIGTQPRRLSGKDTEQIRETLRRGLEINSKPVLPPINPQRQNGLAHDRAPSRKDSLESDSSTAIIPHELIRTRQLESVHLKFNQESGALIPLCLRGRLLHGRHFTYKSITGDMAITFVSTGVEGAFATEEHPYAAHGPWLQILLTEEFVEKMLEDLEDLTSPEEFKLPKEYSWPEKKLKVSILPDVVFDSPLH", "note": "[D159A]", "effect of a mutation on the interaction": "disrupting interaction"}
{"variant": "MAELRPSGAPGPTAPPAPGPTAPPAFASLFPPGLHAIYGECRRLYPDQPNPLQVTAIVKYWLGGPDPLDYVSMYRNVGSPSANIPEHWHYISFGLSDLYGDNRVHEFTGTDGPSGFGFELTFRLKRETGESAPPTWPAELMQGLARRVFQSENTACSGRHVSWHSPLDNSESRIQHMLLTEDPQMQPVQTPFGVVTFLQIVGVCTEELHSAQQWNGQGILELLRTVPIAGGPWLITDMRRGETIFEIDPHLQERVDKGIETDGSNLSGVSAKCAWDDLSRPPEDDEDSRSICIGTQPRRLSGKDTEQIRETLRRGLEINSKPVLPPINPQRQNGLAHDRAPSRKDSLESDSSTAIIPHELIRTRQLESVHLKFNQESGALIPLCLRGRLLHGRHFTYKSITGDMAITFVSTGVEGAFATEEHPYAAHGPWLQILLTEEFVEKMLEDLEDLTSPEEFKLPKEYSWPEKKLKVSILPDVVFDSPLH", "note": "[Y147R;F155A;D159R]", "effect of a mutation on the interaction": "disrupting interaction"}
{"variants_of": "B1", "conditions": "with gli2_mouse Gli2, Q0VGT2"}
{"variant": "D159R", "effect of a mutation on the interaction": "decreasing interaction"}
{"variant": "MAELRPSGAPGPTAPPAPGPTAPPAFASLFPPGLHAIYGECRRLYPDQPNPLQVTAIVKYWLGGPDPLDYVSMYRNVGSPSANIPEHWHYISFGLSDLYGDNRVHEFTGTDGPSGFGFELTFRLKRETGESAPPTWPAELMQGLARRVFQSENTFCSGRHVSWHSPLDNSESRIQHMLLTEDPQMQPVQTPFGVVTFLQIVGVCTEELHSAQQWNGQGILELLRTVPIAGGPWLITDMRRGETIFEIDPHLQERVDKGIETDGSNLSGVSAKCAWDDLSRPPEDDEDSRSICIGTQPRRLSGKDTEQIRETLRRGLEINSKPVLPPINPQRQNGLAHDRAPSRKDSLESDSSTAIIPHELIRTRQLESVHLKFNQESGARIPLCLRGRLLHGRHFTYKSITGDMAITFVSTGVEGAFATEEHPYAAHGPWLQILLTEEFVEKMLEDLEDLTSPEEFKLPKEYSWPEKKLKVSILPDVVFDSPLH", "note": "[Y147R;D159R;L380R]", "effect of a mutation on the interaction": "disrupting interaction"}
{"variants_of": "B1", "conditions": "with gli2_mouse Gli2, Q0VGT2", "remark": "another data set of the same source"}
{"variant": "D159R", "effect of a mutation on the interaction": "disrupting interaction"}
{"variants_of": "B1", "conditions": "with gli1_human GLI1, P08151", "remark": "another data set of the same source"}
{"variant": "MAELRPSGAPGPTAPPAPGPTAPPAFASLFPPGLHAIYGECRRLYPDQPNPLQVTAIVKYWLGGPDPLDYVSMYRNVGSPSANIPEHWHYISFGLSDLYGDNRVHEFTGTDGPSGFGFELTFRLKRETGESAPPTWPAELMQGLARRVFQSENTFCSGRHVSWHSPLDNSESRIQHMLLTEDPQMQPVQTPFGVVTFLQIVGVCTEELHSAQQWNGQGILELLRTVPIAGGPWLITDMRRGETIFEIDPHLQERVDKGIETDGSNLSGVSAKCAWDDLSRPPEDDEDSRSICIGTQPRRLSGKDTEQIRETLRRGLEINSKPVLPPINPQRQNGLAHDRAPSRKDSLESDSSTAIIPHELIRTRQLESVHLKFNQESGARIPLCLRGRLLHGRHFTYKSITGDMAITFVSTGVEGAFATEEHPYAAHGPWLQILLTEEFVEKMLEDLEDLTSPEEFKLPKEYSWPEKKLKVSILPDVVFDSPLH", "note": "[Y147R;D159R;L380R]", "effect of a mutation on the interaction": "disrupting interaction"}
{"variants_of": "B2", "conditions": "with sufu_human SUFU, Q9UMX1"}
{"variant": "G122A;H123A;L124D", "effect of a mutation on the interaction": "decreasing interaction"}
{"variants_of": "B3", "conditions": "with sufu_human SUFU, Q9UMX1"}
{"variant": "G270A;H271A;L272D", "effect of a mutation on the interaction": "disrupting interaction"}
{"variant": "G270V;H271E;L272D", "effect of a mutation on the interaction": "disrupting interaction"}
